Among the data in paper PMC10879843 are coprecipitated Homer, SPKO/WT ratio values, retold here.

In this assay the target is metabotropic glutamate receptor 5 (mouse (endogenous in brain cortex)) (UniProt Q3UVX5). In words: co-IP; mGluR5 immunoprecipitated with rabbit anti-mGluR5 on protein G magnetic beads from brain cortex lysates of 1 month-old WT and SPKO (synaptopodin knockout) mice; 20 mM Tris-HCl pH 7.4, 5 mM EDTA, 100 mM NaCl, 1% Triton X-100; overnight at 4 °C; immunoblot with anti-pan-Homer.
UniProt Q3UVX5, sequence (Q3UVX5 19-1203): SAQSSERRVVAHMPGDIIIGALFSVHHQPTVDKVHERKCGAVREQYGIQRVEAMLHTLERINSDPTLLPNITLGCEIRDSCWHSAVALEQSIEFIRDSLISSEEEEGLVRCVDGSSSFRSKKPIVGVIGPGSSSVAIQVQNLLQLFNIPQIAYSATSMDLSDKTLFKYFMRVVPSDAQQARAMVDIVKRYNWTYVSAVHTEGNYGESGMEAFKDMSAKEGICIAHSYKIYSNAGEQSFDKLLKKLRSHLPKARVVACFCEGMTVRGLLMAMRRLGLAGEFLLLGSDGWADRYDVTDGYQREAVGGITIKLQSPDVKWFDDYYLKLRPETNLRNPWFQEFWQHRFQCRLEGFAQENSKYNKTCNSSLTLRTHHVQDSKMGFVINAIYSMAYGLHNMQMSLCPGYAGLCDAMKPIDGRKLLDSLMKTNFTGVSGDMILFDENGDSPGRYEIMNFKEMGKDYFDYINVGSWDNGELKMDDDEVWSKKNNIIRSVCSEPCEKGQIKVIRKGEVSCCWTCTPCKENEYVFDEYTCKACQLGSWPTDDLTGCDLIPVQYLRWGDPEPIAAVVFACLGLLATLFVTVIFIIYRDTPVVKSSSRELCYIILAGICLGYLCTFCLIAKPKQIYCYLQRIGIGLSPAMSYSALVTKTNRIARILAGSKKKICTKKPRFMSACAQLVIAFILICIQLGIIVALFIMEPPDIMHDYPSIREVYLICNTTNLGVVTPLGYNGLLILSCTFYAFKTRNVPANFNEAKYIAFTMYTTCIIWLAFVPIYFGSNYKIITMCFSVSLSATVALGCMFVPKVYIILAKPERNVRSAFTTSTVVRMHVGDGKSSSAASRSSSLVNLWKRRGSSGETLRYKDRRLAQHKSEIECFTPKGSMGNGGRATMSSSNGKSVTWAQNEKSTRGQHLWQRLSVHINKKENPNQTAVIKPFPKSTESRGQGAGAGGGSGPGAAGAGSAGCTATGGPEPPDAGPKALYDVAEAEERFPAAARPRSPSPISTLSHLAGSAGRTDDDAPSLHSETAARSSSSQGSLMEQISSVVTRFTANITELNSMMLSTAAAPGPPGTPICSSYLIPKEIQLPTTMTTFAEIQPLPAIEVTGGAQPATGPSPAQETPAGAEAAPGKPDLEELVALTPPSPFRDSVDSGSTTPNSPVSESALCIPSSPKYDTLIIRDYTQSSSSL

On to “Homer (long form) (from UniProt Q9Z2Y3 1-366) (natural protein)”, for which the coprecipitated Homer, SPKO/WT ratio is 0.4.
